The assay has as its target T1, HLA-A*02:01 (human).
T1 construct: Construct limits and biotin tag are not described
The assay can be described thus: pMHC used for negative control stimulations, biotin-pMHC on streptavidin beads.

B1: DDX5-001 (YLLPAIVHI from DDX5) (peptide)
peptide: YLLPAIVHI
notes: Peptide of the negative control pMHC for the T-cell stimulations; also called 665
Consider B1, for which the binding result is on record as “binds”.

The record behind these values is US20170037110A1 (IMMATICS BIOTECHNOLOGIES, published 2017).
